These are literature values, as cited in paper PMC2848394.

The data set concerns the target BMP-2 (Homo sapiens) (UniProt P12643). Kind of data set: Biacore SPR. A general note: SPR reads the build-up and loss of mass on a sensor chip optically.

Sequence of Chordin (Q9H2X0 27-955): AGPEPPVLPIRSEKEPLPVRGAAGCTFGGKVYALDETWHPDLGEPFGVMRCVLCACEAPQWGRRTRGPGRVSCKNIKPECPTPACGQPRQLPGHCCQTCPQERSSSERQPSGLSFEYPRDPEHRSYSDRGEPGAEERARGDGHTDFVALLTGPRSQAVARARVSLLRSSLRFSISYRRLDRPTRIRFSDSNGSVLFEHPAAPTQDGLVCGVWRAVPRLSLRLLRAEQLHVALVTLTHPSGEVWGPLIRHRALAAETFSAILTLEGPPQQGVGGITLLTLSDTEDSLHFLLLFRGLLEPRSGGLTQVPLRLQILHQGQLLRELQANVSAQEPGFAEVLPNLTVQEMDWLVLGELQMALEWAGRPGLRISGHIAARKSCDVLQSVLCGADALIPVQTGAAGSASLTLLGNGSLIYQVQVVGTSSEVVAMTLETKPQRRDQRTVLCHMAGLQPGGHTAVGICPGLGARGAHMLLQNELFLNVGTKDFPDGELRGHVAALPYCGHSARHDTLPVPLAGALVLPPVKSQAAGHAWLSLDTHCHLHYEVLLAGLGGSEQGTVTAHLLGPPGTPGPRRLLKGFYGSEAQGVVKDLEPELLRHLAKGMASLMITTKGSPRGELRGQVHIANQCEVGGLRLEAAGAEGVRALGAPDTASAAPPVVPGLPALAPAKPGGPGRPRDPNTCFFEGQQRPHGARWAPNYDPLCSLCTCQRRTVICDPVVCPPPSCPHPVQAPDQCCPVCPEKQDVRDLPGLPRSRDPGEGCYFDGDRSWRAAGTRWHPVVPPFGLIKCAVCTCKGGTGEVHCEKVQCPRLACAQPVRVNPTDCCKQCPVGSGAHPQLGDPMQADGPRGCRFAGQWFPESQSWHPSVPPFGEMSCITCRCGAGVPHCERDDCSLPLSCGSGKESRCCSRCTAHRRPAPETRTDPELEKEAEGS
Sequence of BMP-2 (Homo sapiens) (P12643 283-396): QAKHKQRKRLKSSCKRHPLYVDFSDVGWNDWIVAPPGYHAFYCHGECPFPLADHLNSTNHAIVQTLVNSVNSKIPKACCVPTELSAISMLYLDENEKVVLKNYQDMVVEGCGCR

One may read the Kd as a measure of binding affinity in units of concentration. For Chordin (from UniProt Q9H2X0), the Kd was 12 nM.
